± gives the half width of the 95% confidence interval.
Legend:
[1] = folding stability dG unfold from chymotrypsin proteolysis; higher = more stable
Method in brief: (§1)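 Mini-proteins designed to be under 80 residues and free of cysteine were carried in a PA-tagged cDNA display construct and digested with trypsin and with chymotrypsin. Each protease was applied at 11 threefold-diluted concentrations, alongside a no-protease condition, before sequencing. K50 came from Bayesian fitting of the sequencing counts, and unfolding free energy was obtained by comparing it with a sequence-predicted unfolded-state K50 and a shared folded-state K50, for each protease separately or for both together. Designs were retained only if their AlphaFold2 dimer inter-PAE exceeded 15.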

[2] = folding stability dG unfold from trypsin proteolysis; higher = more stable
Method in brief: as §1

[3] = folding stability dG unfold (combined trypsin and chymotrypsin); higher = more stable
Method in brief: as §1

Row | Sequence | folding stability dG unfold [1] [kcal/mol] | folding stability dG unfold [2] [kcal/mol] | folding stability dG unfold [3] [kcal/mol]
1 | SAGGSAGGSMKPVVDSKADPTSGPEKTLTLTLGDETVTHTVSSSESLTIPLPPNSTVSFEPLGSAGGSAGGS [r12_373_JUSTAS] | 1.11 ± 0.02 | 0.791 ± 0.021 | 1.03 ± 0.042
2 | SAGGSAGGSMKTEVTVDEEGKYTVTVTPPDGSTVNLVVPPGDPAAAVAAAKAAGLEVEDIKAASAGGSAGGS [r12_891_JUSTAS] | -0.241 ± 0.15 | 0.0357 ± 0.061 | -0.21 ± 0.27
3 | SAGGSAGGSMKTIELPNGMKITVEKDEETGVYTITITFPDGSKKTITVPKGTSLEDLVIEIKPSAGGSAGGS [r12_261_TrROS_Hall] | 4.38 ± 0.21 | 2.54 ± 0.095 | 4.04 ± 0.13
4 | SAGGSAGGSMKTTLLAEKELPDGTRVELTRVESPGSLTYEVVTVSPEGTEVRTLPPDELPYLLSAGGSAGGS [r12_315_JUSTAS] | 0.399 ± 0.23 | 1.22 ± 0.082 | 0.912 ± 0.15
5 | SAGGSAGGSMKTVEITIPFYSTTTDPVPSLGLLKTYLEEPEIKLKISPEEYKKLKKTPILKELSAGGSAGGS [r12_1015_JUSTAS] | 0.412 ± 0.26 | -0.229 ± 0.33 | 0.234 ± 0.27
6 | SAGGSAGGSMKVYRIKIEVDGKTYEIEVEMSEEEVKKLAEELGIKDVKIKKVEIEPVEEVEEKSAGGSAGGS [r12_292_TrROS_Hall] | 2.07 ± 0.1 | 0.859 ± 0.18 | 1.92 ± 0.21
7 | SAGGSAGGSMKWTSIASYPHPDMVVHVIKFEGGGELTFPAPFEDLVEIAEKFDLDLEFTGDHPSAGGSAGGS [r12_676_TrMRF] | 0.28 ± 0.11 | 0.45 ± 0.072 | 0.447 ± 0.11
8 | SAGGSAGGSMNTTTTPTAVPAGATLTVTVTSSSKSYSVPPAGPVTVTTTSGSSGTTVTVDVVASAGGSAGGS [r12_919_JUSTAS] | 0.618 ± 0.051 | 0.314 ± 0.022 | 0.53 ± 0.043
9 | SAGGSAGGSMPAGVLVTVTITITKPGKPETLDELDVTVAEGDLDALEEEFAEKYPGLEVTVVRSAGGSAGGS [r12_21_JUSTAS] | 1.92 ± 0.089 | 0.818 ± 0.08 | 1.6 ± 0.1
10 | SAGGSAGGSMPDLRPAPVPALVIPLDLPLEEAIEKARELLDLPEDTEIPIAEFDPETGKIVIASAGGSAGGS [r12_815_TrMRF] | 1.94 ± 0.051 | 0.533 ± 0.024 | 1.57 ± 0.039
11 | SAGGSAGGSMPGETVTLNVKTTVEVTTTLSSPSGSPFPVSVTREVTIPITVSSEELKKGLITLESAGGSAGG [r6_138_JUSTAS] | 0.291 ± 0.15 | -0.473 ± 0.2 | 0.229 ± 0.13
12 | SAGGSAGGSMPPNFRVMIHDDDGEERTFHMSPEDLKEFADNLPDVKVEPHPPGMMHITVRVPKSAGGSAGGS [r20_231_TrROS] | 0.454 ± 0.085 | -0.72 ± 0.19 | 0.101 ± 0.092
13 | SAGGSAGGSMPVVEVEITVSYTVPETGEILTKPETITMTPEEAEKIKEELEKKGYKVEVKYNPKSAGGSAGG [r6_97_JUSTAS] | 1.21 ± 0.067 | 0.824 ± 0.043 | 1.15 ± 0.1
14 | SAGGSAGGSMPVVRIKVRYFNKDGKPVKEKEITITLPAEEITADELRKRLEEAGYEIVEIEVVSAGGSAGGS [r12_611_TrROS_Hall] | 3.63 ± 0.054 | 3.42 ± 0.08 | 3.58 ± 0.061
15 | SAGGSAGGSMRIEFPELGVEVELEPLPGPHVLLRAVFPDGRVYLFRLDPDGRLVEVEPVEVLASAGGSAGGS [r12_56_TrMRF] | 3.42 ± 0.035 | 2.99 ± 0.089 | 3.23 ± 0.11
16 | SAGGSAGGSMSLKGVKITEVTNPGGKVTITYTGDGVPQTITIPPAERALIEKLRESGDISFSPSAGGSAGGS [r12_604_JUSTAS] | 0.579 ± 0.17 | 0.708 ± 0.043 | 0.743 ± 0.1
17 | SAGGSAGGSMSPSSSYTIEKVSEDPSRGVITLKITYPTGESITLKLSPADEEKAEEEAKKLLESAGGSAGGS [r20_167_JUSTAS] | 1.63 ± 0.1 | 1.68 ± 0.04 | 1.63 ± 0.17
18 | SAGGSAGGSMSVTLVKVERDPANNTITVTIKLPSGETAFTKTVAPGTTVTITFPDGTVLTVTESAGGSAGGS [r12_441_JUSTAS] | 3.1 ± 0.035 | 3.12 ± 0.078 | 3.07 ± 0.061

Row | Sequence | folding stability dG unfold [1] [kcal/mol] | folding stability dG unfold [2] [kcal/mol] | folding stability dG unfold [3] [kcal/mol]
19 | SAGGSAGGSMSVTVVGRVPGLGLVEVVIHRPDEPVVVTVPRSEVEALLAAFPYPDAVVTTRDASAGGSAGGS [r12_23_JUSTAS] | 0.205 ± 0.028 | -0.043 ± 0.047 | 0.151 ± 0.056
20 | SAGGSAGGSMTAEELAKAFPNLPKEEITEIRVEKNEDGTITVTITVKNKNGEKIEIKVEIKLESAGGSAGGS [r12_1050_TrROS_Hall] | 2.16 ± 0.067 | 1.34 ± 0.097 | 2.03 ± 0.1
21 | SAGGSAGGSMTIKITLPEEGEKVKITIFVNGEEKEIEIEPGEEITIELPENVKNAIIIIEKEPSAGGSAGGS [r12_729_TrROS_Hall] | 2.48 ± 0.058 | 2.49 ± 0.1 | 2.54 ± 0.11
22 | SAGGSAGGSMTIPILFPIPPGQPPGMEITFRFPGYKIEIEILEVDPENGWIAFMIELTDPGDDSAGGSAGGS [r12_1039_TrROS] | 4.36 ± 0.095 | 3.13 ± 0.093 | 3.92 ± 0.11
23 | SAGGSAGGSMTSVTTLVETETLTNGNTIVPQLVQITVTLEVPAVPPEEIKPKPAPGDRWTYYSSAGGSAGGS [r12_1031_JUSTAS] | 1.1 ± 0.16 | 1.01 ± 0.073 | 1.12 ± 0.18
24 | SAGGSAGGSMTTKTFKLPDGRTVTVTTEKLPNGTTKTTVTITVPGTGKTTTVPASEVPADFSGSAGGSAGGS [r12_797_JUSTAS] | 2.08 ± 0.025 | 1.24 ± 0.038 | 1.83 ± 0.068
25 | SAGGSAGGSMTTSTEVVELSGGSSLTVEREYTVEEVKVDDKWETVTHEVVTTPDSTTVREIKPSAGGSAGGS [r12_128_JUSTAS] | 0.621 ± 0.068 | 0.233 ± 0.063 | 0.526 ± 0.19
26 | SAGGSAGGSMTVTITFAPDESLGPEKLEELLKKAGPDTTIVLSKYDPATGTTSTATIKVEPGSSAGGSAGGS [r12_913_JUSTAS] | 1.25 ± 0.013 | 0.697 ± 0.046 | 1.07 ± 0.07
27 | SAGGSAGGSMTWTETVITLKGNGSETTTYKAKVTEDPSSDTVLVTLPDGTPLTIPKSQVTINSSAGGSAGGS [r12_256_JUSTAS] | 0.668 ± 0.14 | -0.131 ± 0.18 | 0.399 ± 0.096
28 | SAGGSAGGSMVEGELPDAKVTVFFHPDGGALALVEFETETVLARIDVLPDDTLKITVIPAKDASAGGSAGGS [r12_669_TrMRF] | 2.252 ± 0.01 | 2.05 ± 0.05 | 2.16 ± 0.072
29 | SAGGSAGGSMVIRVTTKDGEEVELEIEGMSLEEIKALLPEGVKEVKIEKVEVEPVEVEEEEEESAGGSAGGS [r12_767_TrROS_Hall] | 1.99 ± 0.27 | 1.31 ± 0.1 | 1.72 ± 0.21
30 | SAGGSAGGSMVLRIKTEDGEEIEIELPEELKELSAEEIAELLGLDEVKVVEVEVVEPEEEEEESAGGSAGGS [r12_411_TrROS_Hall] | 2.01 ± 0.05 | 0.256 ± 0.043 | 1.66 ± 0.19
31 | SAGGSAGGSMVRVTRLPDGTYRIEIELPGESLEREARGPEEVEALAEEIEKETGVPVEIETLESAGGSAGGS [r12_783_JUSTAS] | 0.908 ± 0.096 | 1.1 ± 0.068 | 0.945 ± 0.14
32 | SAGGSAGGSMVYTPPEVLTPVREVTITVTTSSYSPSGGTPVTSTSTVPVLVYKDPSGRTAIVPPSAGGSAGG [r6_278_JUSTAS] | 0.195 ± 0.19 | -0.0213 ± 0.072 | 0.159 ± 0.11
33 | SAGGSAGGSMYLIRVTTEDNIELTFLVSEDDIEAFEAFAKALAELFPVPVKVEIEPVEEGEEVSAGGSAGGS [r12_385_TrMRF] | 3.74 ± 0.043 | 3.2 ± 0.16 | 3.54 ± 0.086
34 | SAGGSAGGSMYYVVVTRPGGRPEVIVVPTETLEEVEEVAARIAEALRELGIPEEELEIRVLPVSAGGSAGGS [r12_295_TrMRF] | 1.679 ± 0.016 | 2.4 ± 0.046 | 2.03 ± 0.091
35 | SAGGSAGGSNDPPEIKIDYEYNPNNGMYTANITIPNGRKLKITFPGDDAEDAEEQAKNLIEKLSAGGSAGGS [r12_339_TrROS] | 1.57 ± 0.091 | 0.539 ± 0.089 | 1.28 ± 0.38
36 | SAGGSAGGSNFRIIEFDIKLKIPVMKMEPDPDGKPKMEMQPVKIPIKVTIFVFGNGIFIMITFSAGGSAGGS [r20_58_TrROS] | 5.29 ± 0.16 | 3.42 ± 0.24 | 5.11 ± 0.29

— the supplement of paper PMC12764529
